Results as given in paper PMC7305185 (2020).
Substitutions are numbered along the chain they refer to. In names and notes the source's numbering stands.

B1: pT37 4E-BP2 (protein)
chain: MSSSAGSGHQPSQSRAIPTRTVAISDAAQLPHDYCTTPGGTLFSTAPGGTRIIYDRKFLLDRRNAPMAQAPPCHLPNIPGVTAPGTLIEDSKVEVNNLNNLNNHDRKHAVGDDAQFEMDI
modifications: phospho-Thr37
B2: pS65 pT70 pS83 (T37A/T46A) 4E-BP2 (protein)
chain: B1 chain with T37A, A65S, A70T, A83S
modifications: phospho-Ser65, phospho-Thr70, phospho-Ser83
B3: Non-phospho 4E-BP2 (protein)
chain: B1 chain with A46T, A65S, A70T, A83S
B4: pT37 pT46 (Two-phospho) 4E-BP2 (protein)
chain: B1 chain with A46T
modifications: phospho-Thr37, phospho-Thr46
B5: G39V/G48V Five-phospho 4E-BP2 (protein)
chain: B1 chain with G39V, A46T, G48V, A65S, A70T, A83S
modifications: phospho-Thr37, phospho-Thr46, phospho-Ser65, phospho-Thr70, phospho-Ser83 (legend prints pT36, taken as a typo for pT37)
B6: pT46 4E-BP2 (protein)
chain: B1 chain with T37A, A46T
modifications: phospho-Thr46

Molecular target: eukaryotic translation initiation factor 4E (eIF4E) (UniProt P06730 1-217)
Assay: ITC

Chain of eukaryotic translation initiation factor 4E (eIF4E) (P06730 whole entry): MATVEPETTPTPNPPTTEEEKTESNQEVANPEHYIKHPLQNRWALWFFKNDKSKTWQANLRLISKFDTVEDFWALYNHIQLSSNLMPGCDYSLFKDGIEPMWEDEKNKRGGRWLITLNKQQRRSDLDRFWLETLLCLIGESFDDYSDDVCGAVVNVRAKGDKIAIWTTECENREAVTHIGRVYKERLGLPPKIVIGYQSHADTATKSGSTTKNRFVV

Row | Binder | Kd [nM]
1 | B1 | 7.2
2 | B2 | 11.3
3 | B3 | 3.2
4 | B4 | 267
5 | B5 | 36.1
6 | B6 | 2.4
